In article PMC12586603 one finds stoichiometry N data, which are given here for one molecule.

As usually defined, the stoichiometry N is a count of units in the complex or per binding partner.

The target of the test is T1, 3xFLAG-HSF1, Q00613.
T1 chain: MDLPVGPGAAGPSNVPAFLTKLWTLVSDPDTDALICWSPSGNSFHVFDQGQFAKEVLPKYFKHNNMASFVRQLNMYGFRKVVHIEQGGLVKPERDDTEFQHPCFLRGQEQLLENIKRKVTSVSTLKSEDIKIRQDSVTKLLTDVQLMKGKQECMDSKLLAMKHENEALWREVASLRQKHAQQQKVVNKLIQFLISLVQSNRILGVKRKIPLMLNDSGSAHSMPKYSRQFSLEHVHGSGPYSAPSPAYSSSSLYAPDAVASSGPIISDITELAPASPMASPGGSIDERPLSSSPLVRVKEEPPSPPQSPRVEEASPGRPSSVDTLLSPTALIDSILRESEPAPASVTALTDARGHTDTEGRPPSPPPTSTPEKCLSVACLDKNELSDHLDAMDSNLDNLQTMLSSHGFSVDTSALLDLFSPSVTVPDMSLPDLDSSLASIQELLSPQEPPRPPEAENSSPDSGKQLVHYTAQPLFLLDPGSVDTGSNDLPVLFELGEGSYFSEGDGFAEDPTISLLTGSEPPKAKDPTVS
In words: cross-linking; cell extracts from transfected 293T cells, in vitro cross-linking with 2 mM ethylene glycol bis(succinimidyl succinate) (EGS), immunoblot; with or without DBC1 overexpression. The note with it: remark: other sources report otherwise. (In western blotting, separated proteins are transferred to a membrane and probed.)

B1: 3xFLAG-HSF1, Q00613 1-529 (natural protein)
chain: T1 chain
For B1, the stoichiometry N was 3.
